{
  "source": "paper PMC9048679",
  "about": "“Correlation Between Improved Mating Efficiency and Weakened Scaffold-Kinase Interaction in the Mating Pheromone Response Pathway Revealed by Interspecies Complementation” (Frontiers in Microbiology, 2022)",
  "molecules": {"B1": {"name": "KmSte5 (Ste5 of Kluyveromyces marxianus), Gal4-AD fusion (natural protein, K. marxianus, UniProt A0ABX6ETE1 1-763, looked up)", "chain": "MNSQEILFQLTNVGSTPVSSKNDTMTTPTSGSNTSSPRRWTELFSKKRAKTPSISTPSTSSSAVSSLHDGSPVRPGSKQSFRHFNIDSALQYPPVMQSPESYHSAGNGNGSGHGNVQVGKKPHRRGGNKSWKNEKCCICRDLCSFKGSTERVIILQCNHMCHEDCLMVSLNPVSKTFDLYDALPKCQMCSMLCVPSQEDMKQRLRNHLLTVNSSSSDQLSSAIPQVQSQLKPHNSPENTRTGIGPLAPPPPPLSMRNAVKTTPTNRDIRLSFASSLKPPVFVTPSVRDSWRLPRASSIKRRSNNYRGSTISALSSITSSSSLYNDSQLVCSLHIQRQYFMQAFLTSFEEIKPWEIDSRYGLLRLIDYFLISLDDQGFKQCCCYLFSEYLLLCQPSSKASSNVLQFSSYRFLQLNSPANIELIDATTLELKAKTGERVRIKPFNSDTKSLEKWITAFFDPTLTFGNLDFTSIPLPDFVSAMPSADDSRTIIVRRQNTINETIVTAGPRDSTLFTSISSILSIKRSTPRELNVILQVDRRKLKSENLITIKNVLSALTWKYHDFNCCIVGVDGLIVKIGGAREILDSWAEISDAGTQPFSPALLYKTWYKERGKVCNNAGVLVISNASMETGKTCLFHDYRMFANVGKRHVNELKIKVGFLNVDYTNKIKELVEIQDWNELLEAVSYSFNINFDDDDDDDDDEGDSDTSDSFSVGSSEFNKSLNSDNERLVRPPSPTSFEDIEADSHSQFDDDSELQHSIIYDYL", "notes": "Ste5 of Kluyveromyces marxianus, KEGG KLMA_20171; probably the whole ORF; also called natural KmSte5; source: yeast two-hybrid fusion (pGADT7, transformed into AH109, diploid with Y187)"}, "B2": {"name": "KlSte5 (Ste5 of Kluyveromyces lactis), Gal4-AD fusion (natural protein, K. lactis, UniProt Q6CKB4 1-746, looked up)", "chain": "MSRGNTSSMNSQDILFQLTNVGSSPVPKLDTGSTSGSNTSSPRRWTELFSKKRVKTPSVGTPSTASSMISSFYDSSPIRPVSKQHPKHLLVDPIMPPPPIMLSPIGHETLGKKPTRKNGNKSWKNERCCICGDLCSFKGSNEKVIPLECNHMCHEDCLMVSLRPLPHKSNLYDALPKCDICSMSCIPGQEDMRQKVRSHLLTLPDDGESVGLEPYNPQENYERIKLCDADLLPKHSGNDETFPHLQTTRTTARNNDIRLSFAFSLKPGKTVTPSLRDSIRLHRSRSIKRRSNFRGSTVSGLSSIVSSSSKDDCQLPSLHVQRQYFIQAFLNSFSEVKPWEIDAKYGLLRLIDNFLISLDGINFQHQVCYLFSEYLLVCRPSPATSANVLQFSSYRCFQLNNPPELDLLDATTLESKSRSGERILIKPYGLDTKALEKWITALFDLTLPFGNYDFTSIKVPEFVACIPSTNDTGTIIVRRQSTLNETLIPKTIRDSSVLTSISSILSIKRATPNELNLVLQLDKRKTNEDNIVSIKNVILALTWKFSTFNCCIVDVEGMVINCGTANDVLNSLAGPIKSNGNQPFSPDLLHQLWYRQKQKICKNVGVVVLSNSSMENGKSCLFSDYRIFADAGKRHPNELKIKVGFLNVDYSDNIKELVEIQDWNELLEAVAYSFNLSFDDDLDSSDCVSTSSSDFEVDSVPDKNRTFRLSSPISWENHVQADLTGSMNGISESIEDRQSNHMYDYL", "notes": "Ste5 of Kluyveromyces lactis, KEGG KLLA0_F12023g; probably the whole ORF; source: yeast two-hybrid fusion (pGADT7, transformed into AH109, diploid with Y187)"}},
  "test_in_all_cases": "two-hybrid; Matchmaker GAL4 system; Ste5 forms on Gal4-AD (pGADT7, AH109), Ste7 orthologs on Gal4-BD (pGBKT7, Y187), diploids on SC-Leu-Trp; quantitative β-galactosidase assay of cell lysate with ONPG; units of the same BD-Ste7 with void pGADT7 subtracted; mean of three colonies",
  "key": {"[1]": {"molecular_target": "KlSte7 (Ste7 of Kluyveromyces lactis), Gal4-BD fusion (K. lactis) (UniProt Q6CSZ8)"}, "[2]": {"molecular_target": "KmSte7 (Ste7 of Kluyveromyces marxianus), Gal4-BD fusion (K. marxianus)"}, "[3]": {"molecular_target": "T1, KmSte7 (Ste7 of Kluyveromyces marxianus), Gal4-BD fusion (K. marxianus, UniProt A0ABX6F0V6 1-494)", "T1 construct": "Ste7 (MAPKK) of Kluyveromyces marxianus, KEGG KLMA_70246; ORF cloned into the EcoRI site of pGBKT7; source: yeast two-hybrid fusion (pGBKT7, transformed into Y187, diploid with AH109)", "T1 sequence (looked up)": "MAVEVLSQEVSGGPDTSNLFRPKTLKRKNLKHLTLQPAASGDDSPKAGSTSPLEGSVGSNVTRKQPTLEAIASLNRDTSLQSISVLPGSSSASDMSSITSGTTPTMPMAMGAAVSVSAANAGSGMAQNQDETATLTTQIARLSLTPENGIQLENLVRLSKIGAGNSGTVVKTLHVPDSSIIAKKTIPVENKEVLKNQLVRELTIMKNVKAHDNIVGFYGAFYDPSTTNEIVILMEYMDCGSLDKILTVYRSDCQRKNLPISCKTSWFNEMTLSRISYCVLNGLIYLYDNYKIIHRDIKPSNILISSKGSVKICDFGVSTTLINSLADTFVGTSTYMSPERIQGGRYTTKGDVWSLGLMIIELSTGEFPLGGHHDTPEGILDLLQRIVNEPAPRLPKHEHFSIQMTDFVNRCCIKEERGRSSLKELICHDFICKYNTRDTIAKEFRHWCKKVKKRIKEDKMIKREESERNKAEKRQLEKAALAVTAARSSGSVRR", "details": "partners not purified"}, "[4]": {"molecular_target": "T2, KlSte7 (Ste7 of Kluyveromyces lactis), Gal4-BD fusion (K. lactis, UniProt Q6CSZ8 1-504)", "T2 construct": "Ste7 (MAPKK) of Kluyveromyces lactis, KEGG KLLA0_C16577g; ORF cloned into the EcoRI site of pGBKT7; source: yeast two-hybrid fusion (pGBKT7, transformed into Y187, diploid with AH109)", "T2 sequence (looked up)": "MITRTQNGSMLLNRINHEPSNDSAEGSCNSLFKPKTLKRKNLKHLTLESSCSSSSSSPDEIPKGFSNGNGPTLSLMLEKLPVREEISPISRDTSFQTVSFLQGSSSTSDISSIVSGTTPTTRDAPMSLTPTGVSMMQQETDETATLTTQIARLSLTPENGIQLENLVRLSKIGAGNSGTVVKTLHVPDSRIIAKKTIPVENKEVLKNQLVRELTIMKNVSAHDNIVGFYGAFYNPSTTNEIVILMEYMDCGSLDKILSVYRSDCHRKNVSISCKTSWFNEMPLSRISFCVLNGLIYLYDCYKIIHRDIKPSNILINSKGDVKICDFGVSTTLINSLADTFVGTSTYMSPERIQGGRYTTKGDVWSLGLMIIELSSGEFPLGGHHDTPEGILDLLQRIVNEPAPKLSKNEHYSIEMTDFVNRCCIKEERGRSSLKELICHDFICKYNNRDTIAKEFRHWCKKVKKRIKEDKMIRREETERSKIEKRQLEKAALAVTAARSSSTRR", "details": "partners not purified"}},
  "data": [
    {"molecule": "KlSte5-KmBD (KlSte5 with its Ste7-binding region replaced by that of KmSte5), Gal4-AD fusion (from UniProt A0ABX6ETE1 660-763)", "values": [
      {"measurement": "strength of the interaction (units of β-galactosidase) (units of β-galactosidase)", "setting": "[1]", "result": 20.3},
      {"measurement": "strength of the interaction (units of β-galactosidase) (units of β-galactosidase)", "setting": "[2]", "result": 11}
    ]},
    {"molecule": "KmSte5-KlBD (KmSte5 with its Ste7-binding region replaced by that of KlSte5), Gal4-AD fusion (from UniProt A0ABX6ETE1 1-659)", "values": [
      {"measurement": "strength of the interaction (units of β-galactosidase) (units of β-galactosidase)", "setting": "[1]", "result": 31.8},
      {"measurement": "strength of the interaction (units of β-galactosidase) (units of β-galactosidase)", "setting": "[2]", "result": 14.9}
    ]},
    {"molecule": "B1", "values": [
      {"measurement": "strength of the interaction (units of β-galactosidase)", "setting": "[3]", "result": "22.8 units of β-galactosidase"},
      {"measurement": "strength of the interaction (units of β-galactosidase)", "setting": "[4]", "result": "30 units of β-galactosidase"}
    ]},
    {"molecule": "B2", "values": [
      {"measurement": "strength of the interaction (units of β-galactosidase)", "setting": "[3]", "result": "8.13 units of β-galactosidase"},
      {"measurement": "strength of the interaction (units of β-galactosidase)", "setting": "[4]", "result": "13.7 units of β-galactosidase"}
    ]}
  ]
}
